# Measured values taken from patent US20020019014A1, “Methods of identifying prosaposin receptor agonists and antagonists” (priority 1997, published 2002).
# Entries after “also recorded” stand apart in the source; their conditions may differ. Like-named read-outs stand apart in the source and are kept apart here.
# B1: saposin A: saposin from prosaposin; inactive compound that binds the receptor without stimulating effector functions (protein, UniProt P07602 60-142, looked up)
# Saposin-A: SLPCDICKDVVTAAGDMLKDNATEEEILVYLEKTCDWLPKPNMSASCKEIVDSYLPVILDIIKGEMSRPGEVCSALNLCESLQ
# modifications: Saposin-A
# B2: prosaposin: 70 kilodalton glycoprotein, precursor of saposins A, B, C and D (protein, UniProt P07602 17-524, looked up)
# pro-form: GPVLGLKECTRGSAVWCQNVKTASDCGAVKHCLQTVWNKPTVKSLPCDICKDVVTAAGDMLKDNATEEEILVYLEKTCDWLPKPNMSASCKEIVDSYLPVILDIIKGEMSRPGEVCSALNLCESLQKHLAELNHQKQLESNKIPELDMTEVVAPFMANIPLLLYPQDGPRSKPQPKDNGDVCQDCIQMVTDIQTAVRTNSTFVQALVEHVKEECDRLGPGMADICKNYISQYSEIAIQMMMHMQPKEICALVGFCDEVKEMPMQTLVPAKVASKNVIPALELVEPIKKHEVPAKSDVYCEVCEFLVKEVTKLIDNNKTEKEILDAFDKMCSKLPKSLSEECQEVVDTYGSSILSILLEEVSPELVCSMLHLCSGTRLPALTVHVTQPKDGGFCEVCKKLVGYLDRNLEKNSTKQEILAALEKGCSFLPDPYQKQCDQFVAEYEPVLIEILVEVMDPSFVCLKIGACPSAHKPLLGTEKCIWGPSYWCQNTETAAQCNAVEHCKRHVWN
# modifications: pro-form
# notes: 70 kilodalton glycoprotein, precursor of saposins A, B, C and D
# B3: saposin C: heat-stable glycoprotein generated by proteolytic processing of prosaposin (protein, UniProt P07602 311-390, looked up)
# Saposin-C: SDVYCEVCEFLVKEVTKLIDNNKTEKEILDAFDKMCSKLPKSLSEECQEVVDTYGSSILSILLEEVSPELVCSMLHLCSG
# modifications: Saposin-C
# What was measured:
# prosaposin receptor [1] = conditions: cited from earlier work
# prosaposin receptor [2] = conditions: cited from earlier work; remark: listed apart in the source
# MAPK = assay: MAP kinase (MAPK) phosphorylation assay; format: cell-based; conditions: after binding to the prosaposin receptor
# Description: PC12 cells are grown to 85% confluence in DME high glucose media containing 10% FBS, 5% horse serum, 100 U/ml penicillin, 100 μg/ml streptomycin and 250 pg/ml fimgizone. Approximately 2×10^6 cells per 100 mm plate are placed in serum-free media for 24 hours prior to addition of compounds capable of binding to the prosaposin receptor. Positive controls are as described previously. Cells are stimulated with the compound of interest, then lysed on ice in 1 ml of 50 mM Tris-HCl, pH 8.0, 150 mM NaCl, 1 mM EGTA, pH 8.0, 100 mM NaF, pH 8.0, 10% glycerol, 1.5 mM MgCl2. 1% (v/v) Triton X-100, 1 mM sodium orthovanadate, 1 mM phenylmethylsulfonyl fluoride (PMSF), 10 μg/ml leupeptin, 20 μg/ml aprotinin. Unsolubilized materials are removed by ultracentrifugation at 12,000 x g at4° C.
# Equal amounts of cell lysates are resolved by sodium dodecyl sulfate-polyacrylamide gel electrophoresis (SDS-PAGE) and transferred to a PVDF membrane (Millipore, Bedford, Mass.). Phosphorylated MAPK is identified using PhosphoPlus™ MAPK antibody and an alkaline phosphatase conjugated secondary antibody that emits light in the presence of a chemiluminescent substrate (New England Biolabs, Beverly, Mass.). […] Densitometric data are expressed as a ratio of MAPK-P absorbance units divided by MAPK-C absorbance units. […]
# [3] = test system: NS20Y neuroblastoma cells; conditions: as described in U.S. Pat. No. 5,571,787 and PCT/US94/08453; cited from earlier work
# NS20Y cells = conditions: as described in U.S. Pat. No. 5,571,787 and PCT/US94/08453, cited from earlier work
# [4] = test system: Newborn mouse cerebellar explants; conditions: as described in U.S. Pat. No. 5,571,787 and PCT/US94/08453; cited from earlier work
# several proteins = conditions: cited from earlier work
Molecule,binding to receptor (prosaposin receptor [1]),stimulation of receptor effector functions (prosaposin receptor [2]),phosphorylation of MAPK (MAPK),neurite outgrowth [3],prevention of neural cell death (NS20Y cells),prevention of neural cell death (NS20Y cells; listed as Prosaposin),stimulation of myelination [4],incorporation of 32P into several proteins (several proteins)
B1,binds to the receptor,without stimulating any of its effector functions,–,–,–,–,–,–
B2,binds to a cell surface receptor,–,stimulate phosphorylation of MAPK,induce neurite outgrowth,prevent neural cell death,prevent neuronal cell death,stimulate myelination,stimulates incorporation of ^32P into several proteins
B3,–,–,stimulate phosphorylation of MAPK,induce neurite outgrowth,prevent neuronal cell death; also recorded: prevent neural cell death,–,stimulate myelination,–
